According to patent US20250326860A1:

Legend:
[1] = target: human CD20 on cells (human B cells; Raji, SU-DHL-8, SU-DHL-4, A3KAW, NAMALWA) (human) (UniProt P11836); assay: binding to Raji cells
[2] = target: human CD20 on cells (human B cells; Raji, SU-DHL-8, SU-DHL-4, A3KAW, NAMALWA) (human) (UniProt P11836); assay: flow cytometry, human B cells
[3] = target: human CD3 on cells (Jurkat cells, human T cells) (human) (UniProt P07766); assay: binding to human CD4+ T cells
[4] = target: human CD3 on cells (Jurkat cells, human T cells) (human) (UniProt P07766); assay: binding to human CD8+ T cells
[5] = target: cynomolgus monkey CD20 on B cells (cynomolgus monkey) (UniProt M4ZHZ6); assay: flow cytometry, monkey B cells
[6] = target: human CD20 on cells (human B cells; Raji, SU-DHL-8, SU-DHL-4, A3KAW, NAMALWA) (human) (UniProt P11836); assay: binding to human B cells
[7] = target: human CD3 on cells (Jurkat cells, human T cells) (human) (UniProt P07766); assay: binding to human CD3+ T cells
human CD3δε (human) = human CD3δε (human) (UniProt P07766); assay: binding to CD3δ/ε protein dimer

Chain of human CD3 on cells (Jurkat cells, human T cells) (human) (P07766 23-207): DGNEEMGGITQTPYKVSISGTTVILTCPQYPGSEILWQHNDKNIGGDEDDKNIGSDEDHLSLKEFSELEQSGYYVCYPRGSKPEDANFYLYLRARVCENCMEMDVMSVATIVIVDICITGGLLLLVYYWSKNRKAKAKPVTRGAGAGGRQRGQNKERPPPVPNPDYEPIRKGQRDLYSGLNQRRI
Chain of human CD20 on cells (human B cells; Raji, SU-DHL-8, SU-DHL-4, A3KAW, NAMALWA) (human) (P11836 whole entry): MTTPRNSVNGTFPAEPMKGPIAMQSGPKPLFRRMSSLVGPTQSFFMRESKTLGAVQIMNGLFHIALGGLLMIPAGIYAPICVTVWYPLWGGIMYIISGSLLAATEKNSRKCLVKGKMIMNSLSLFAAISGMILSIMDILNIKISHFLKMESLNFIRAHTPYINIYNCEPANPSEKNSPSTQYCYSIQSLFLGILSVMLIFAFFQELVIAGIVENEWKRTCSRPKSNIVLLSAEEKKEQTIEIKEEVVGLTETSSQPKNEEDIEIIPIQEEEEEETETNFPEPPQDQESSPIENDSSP

Substance	EC50 [1] [µM]	max MFI [2] [MFI]	EC50 [3] [µM]	EC50 [4] [µM]	max MFI [5] [MFI]	EC50 [6] [µM]	EC50 [7] [µM]	EC50 (human CD3δε (human)) [µM]
IgG1 isotype control antibody	> 8	1650	> 2	> 2	60.4			
Plamotamab analog (bispecific antibody)	0.135		0.0131	0.0101		0.2	0.0118	0.0021
